test: yeast display, Sf9 membrane polyspecificity reagent, FACS + sequencing; frameworks hold sequencing errors
In short: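 Sorting gates, low and high (top ~1%), were placed on anti-HA fluorescence to track expression and on streptavidin fluorescence to track reagent binding. A clone's polyreactivity label is taken from the gate it came out of. The reagent was 10% biotinylated, detergent-solubilized Sf9 membrane, applied for 1 hour at 4 °C to galactose-induced yeast display cells.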

Sequence | polyreactivity (PSR sort gate)
QVQLVESGGGLVQAGGSLRLSCAASGYTFPSNAMGWYREAPGKERELVAAISSGARTNYADSVKGRFTISRDNAKNTVYLQMNSLKPEDTAVYYCNKAAASFRHFYGYGYWGQGTQVTVSS | low polyreactivity
QVQLVESGGGLVQAGGSLRLSCAASGYTFQAYAMGWYRQAPGKERELVAAISFSSGSTYYADSVKGRFTISRDNAKNTVYLQMNSLKPVDTAVYYCATDYPYYGYDYWGHGTQVTVSS | low polyreactivity
QVQLVESGGGLVQAGGSLRLSCAASGYTFQKYAMGWYIQAPGKERELVAAITRSGTRTYYADSVKGRFTISRDNAKNTVYLQMNSLKPEDTAVYYCAAETYYSIYDYWGQGTQVTVSS | high polyreactivity
QVQLVESGGGLVQAGGSLRLSCAASGYTFQKYAMGWYRQAPGKERELVAAITRSGTRTYYADSVKGRFTISRDNAKNTVYFQMNSLKPEDTAVYYCAAETYYSIYDYWGQGTQVTVSS | high polyreactivity
QVQLVESGGGLVQAGGSLRLSCAASGYTFRAYAMGWYRQAPGKEREYVAAISRSGGSTYYADSVKGRFTISRDNAKNTVYLQMNSLKPEDTAVYYCNKVYRWAGYDYWGQGSQVTVSS | high polyreactivity
QVQLVESGGGLVQAGGSLRLSCAASGYTFRAYVMGWYRQAPGKERELVAGITRRGGTTYYADSVKGRFTISRDNAKNTVYLQMNSLKPEDTAVYYCNAVFRSGSIPYDSWGQGTQVTVSS | high polyreactivity
QVQLVESGGGLVQAGGSLRLSCAASGYTFRHYAMGWYRQEPGKERELVAAITFNGGTTYYADSVKGRFTISRDNAKNTVYLQMNSLKPEDTAVYYCNALPYSRGRWRPLSAVDYWGQGTQVTVSS | high polyreactivity
QVQLVESGGGLVQAGGSLRLSCAASGYTFRSYTMGWYRQAPGKERELVAAITSRGTSTYYADSVKGRFTISRDNAKNTVYLQMNSLKPEDTAVYYCAAPIYNGYASWQVYYWGQGTQVTVSS | high polyreactivity
QVQLVESGGGLVQAGGSLRLSCAASGYTFRWYAMGWYRQAPGKERELVAAISWSTGRTYYADSVKGRFTISRDNAKNTVYLQMNSLKPEDNAVYYCAASYYVYSGGNYLRYDSWGQGTQVTVSS | high polyreactivity
QVQLVESGGGLVQAGGSLRLSCAASGYTFRYYVMGWYIQAPGQERELVATISRGGRTNYADSVKGRFTISRDNAKNTVYLQMNSLKPEDTAVYYCNARTLYAYITRDYWGQGTQVTVSS | high polyreactivity
QVQLVESGGGLVQAGGSLRLSCAASGYTFSFNAMGWYRQAPGKEREFVAAIDFGGAGTYYADSVKGRFTISRDTAKKTVYLQMNSLKPEDTAVYYCNARDGVTTEFDYWGQGTQVTVAS | low polyreactivity
QVQLVESGGGLVQAGGSLRLSCAASGYTFSKNTMGWYRQAPGKEREFVAAINWSGGSTYYADSVKGRFTISRDNAKNTVYLQMNSLKPEDTAVYYCAARRGGRRGYDYWGQGTQVTVSS | high polyreactivity
QVQLVESGGGLVQAGGSLRLSCAASGYTFSNNAMGWYRQAPGKERELVAAISRSTGSTYYADSVKGRFTISRDNAKNTVYLQMNSLKPEDTAVYYCAAEYYVDKSSWYDYWGQGTQVTVSS | high polyreactivity
QVQLVESGGGLVQAGGSLRLSCAASGYTFSPNDMGWYRQAPGKERELVAAMTSSVGSTYYADSVKGRFTISRDNAKNTVFLQMNSLKPEDTAVFYCAADTWYLGYPDFWLDYWGQGTQVTVSS | low polyreactivity
QVQLVESGGGLVQAGGSLRLSCAASGYTFSRYAMGWYRQAPGKERELVADISRSGGSTDYADSVKGRFTISRDNAKNTVYLQMNSLKPEETAVYYCAKGSWWGYYSYGFDYWGQGTQVTVSS | high polyreactivity
QVQLVESGGGLVQAGGSLRLSCAASGYTFSYYDMGWYRQAPGKERELVAGISKRGGSTRYADSVKGRFTISRDNAKNTVYLQMNSLKPEDTAVYYCNRLPYLHYAGRLTNYDYWGQGTQVTVSS | high polyreactivity
QVQLVESGGGLVQAGGSLRLSCAASGYTFSYYTMGRYLQAPGKERELVAVITSAGGTYFADSVKGRFTISRDNAKNTVYLQMNSLKPEDTAVYYCAAERWADYVWIFIDDYDYLGQGTQVTVSS | low polyreactivity
QVQLVESGGGLVQAGGSLRLSCAASGYTFTGYAMGWYRQAPGKERELVAAISWNGGSTFYADSVKGRFTISRDNAKNTVYLQMNSLKPEDTAVYYCATPRKLAYSPKLDYWGQGTQVTVSS | low polyreactivity
QVQLVESGGGLVQAGGSLRLSCAASGYTFTQNAMGWYRQAPGQERELVASLTSGGSTDYADSVKGRFTISRDNAKNTVYLQMNSVKPEDTAVYYCAAGTATDVASIGATKDYDYWGQVTQVTVSS | low polyreactivity
QVQLVESGGGLVQAGGSLRLSCAASGYTFTRYAMGWYRQAPGKEREFVAAITSGGGSTYYADSVKGRFTISRDNAKNTVYLQMNSLKPEDTAVYYCAADLTSLWYTVQLELDFWGQGTQVTVSS | low polyreactivity

Sequence | polyreactivity (PSR sort gate)
QVQLVESGGGLVQAGGSLRLSCAASGYTFTSNAMGWYRQAPGKERELVAAITNVGSTNYADSVKGRFTISRDNAKNTVYLQMNSLKPEDTAVYYCAADWDAVYLQTADYDYWGQGTQVTVSS | low polyreactivity
QVQLVESGGGLVQAGGSLRLSCAASGYTFVIYAMGWYRQAPGKERELVAAITTIGGRTYYADSVKGRFTISRDNAKNTVYLLMNSLKPEDTAVYYCAADIRSNRLYDGGYWGQGTQVTVSS | low polyreactivity
QVQLVESGGGLVQAGGSLRLSCAASGYTFVKYAMGWYRQAPGKERELVASISWSGGRTYYADSVKGRFTISRDNAKNTVYLQMNSLKPEDTAVYYCATRPTWYSYDYWGHGTQVTVSS | high polyreactivity
QVQLVESGGGLVQAGGSLRLSCAASGYTFVVYAMGWYRQAPGKERELVARISSGGSTFYADSVKGRFTISRDNAKNTVYLQMNSLKPEDTAVYYCAAQWTRYRRRPMDYWGQGTQVTVSS | high polyreactivity
QVQLVESGGGLVQAGGSLRLSCAASGYTFVYNGMGWYRQAPGKERELVAAIRRRTGTTYYADSVKGRFTISRDNAKNTVYLQMNSLKPEDTAVYYCAATGFWGYDWGQGTQVTVSS | high polyreactivity
QVQLVESGGGLVQAGGSLRLSCAASGYTFWDYTMGWYRQAPGKEREFVAAINWSGGSTYYADSVKGRFTISRDNAKKTVYLQMNSLKPEDTAVYYCAARRGGRRGYDYWGQGTQVTVSS | high polyreactivity
QVQLVESGGGLVQAGGSLRLSCAASGYTFWDYTMGWYRQAPGKERELVAAISSSGSSTYYADSVKGRFTISRDNAKNTVYLQMNSLKPEDTAVYYCAAYSRRQWKYDYWGQGTQVTVSS | high polyreactivity
QVQLVESGGGLVQAGGSLRLSCAASGYTFYANAMGWYRQAPGKEREFVASINYSGGSTYYADSVKGRFTISRDNAKNTVYLQINSLKPEDTSVYYCAARTGTLDDWDYAYDYWGQGTQVTVSS | low polyreactivity
QVQLVESGGGLVQAGGSLRLSCAASGYTFYAYAMGWYRQAPGKERELVATISSGGRTYYADSVKGLFTISRDNAKNTVYLQMNSLKPEDTAVYYCAARKTRYISRFDYWGQGTQVTVSS | high polyreactivity
QVQLVESGGGLVQAGGSLRLSCAASGYTFYFYAMGWYRQAPGKEREFVAAIRSSGGRTYYADSVKGRFTISRDNAKNTVYLQMNSLKPEDTAVYYCAAAGYYYSVDGAGPRYDYWGQGTQVTVSS | low polyreactivity
QVQLVESGGGLVQAGGSLRLSCAASGYTFYIYVMGWYRQAPGKERELVAAISSGDSTNYADSVKGRFTISRDNAKNTVYLQMNSLKPEDTAVYYCNAVHRSIARGGGMDYWGQGTQVTVSS | low polyreactivity
QVQLVESGGGLVQAGGSLRLSCAASGYTFYKNTMGWYRQAPGKERELVARISRSGGSTYYADSVKGRFTISRDNAKNTVYLQMNSLKPEDTAVYYCAVRQGYRSGIYEYDYWGQGTQVTVSS | high polyreactivity
QVQLVESGGGLVQAGGSLRLSCAASGYTFYPYDIGWYRQAPGKERELVAAISWSGGGTYYADSVKGRFTISRDNAKNTVYLQMNSLKPEDTAVYYCAADLKALNQSYPGYEYWGQGTQVTVSS | low polyreactivity
QVQLVESGGGLVQAGGSLRLSCAASGYTFYQYAMGWYRQAPGKESELVADISRSGVSTYYADSVKGRFTISRDNAKNTVYLQMNSLKPEDTAVYYCAARRPFYRQLDYWGQGTQVTVSS | high polyreactivity
QVQLVESGGGLVQAGGSLRLSCAASGYTFYVYAMGWYRQAPGTERELVADISTSDGSTYYADSVKGRFTISRDNAKNTVYLQMNSLKPEDTAVYYCNTDGSHGLYDWFWPANNDYWGQGTQVTVSS | low polyreactivity
QVQLVESGGGLVQAGGSLRLSCAASGYTFYYNTMGWYRQAPGKERELVARINSAGRTNYADSVKGRFTISRDNAKNTVYLQMNSLKPKDTAVYYCAADGPANPDELKVNDFDYWGQGTQVTVSS | high polyreactivity
QVQLVESGGGLVQAGGSLRLSCAASGYTFYYSMGWYRQAPGKERELVAAISAGGGRTYYADSVKGRFTISRDNAKNTVYLQMNSLKPEDTAVYYCNRVYRLTAYGYDYWGQGTQVTVSS | high polyreactivity
QVQLVESGGGLVQAGGSLRLSCAASGYTILSYGMGWYRQAPGKERELVADISSGDRTNYADSVKGRFTISRDNAKNTVYLQMNSLKPEDTAVYYCNADRASSSVGYSDDFGHDSWGQGTQVTVSS | low polyreactivity
QVQLVESGGGLVQAGGSLRLSCAASGYTIYIYAMGWYRQAPGKEREFVATISRSGGSTSYADSVKGRFTISRDNAKNTVYLQMNSLKPEDTSVYYCAAEWGYYAVGAQYYYWGQGTQVTVSS | high polyreactivity
QVQLVESGGGLVQAGGSLRLSCAASGYTLFRNAMGSYRQAPGKERELGAAISRSGARTYYADSVKGRFTISRDNAKNTVYLQMNSLKPEDTAVYYCAAVIKWTKDDYWGQGTQVTVSS | high polyreactivity
